B1: Clone 178 (designed binder)
chain: MIPGGLSEAKPATPEIQEIVDKVKPQLEEKTGETYGKLEAVQYKTQVVDHLPHAKYWGTNYYIKVRAGDNKYMHLKVFKSLWYQPRWKVEEDLVLTGYQVDKNKDDELTGF
notes: His-tagged
B2: Clone 147 (designed binder)
chain: MIPGGLSEAKPATPEIQEIVDKVKPQLEEKTGETYGKLEAVQYKTQVVVHITVEWEGTNYYIKVRAGDNKYMHLKVFKSLIYQRHTQSREDLVLTGYQVDKNKDDELTGF
notes: His-tagged
B3: Clone 156 (designed binder)
chain: MIPGGLSEAKPATPEIQEIVDKVKPQLEEKTGETYGKLEAVQYKTQVVIQQLYKQTWGTNYYIKVRAGDNKYMHLKVFKSLDYQHWPYDFEDLVLTGYQVDKNKDDELTGF
notes: His-tagged
B4: Clone 165 (designed binder)
chain: MIPGGLSEAKPATPEIQEIVDKVKPQLEEKTGETYGKLEAVQYKTQVVNEAESSRFLGTNYYIKVRAGDNKYMHLKVFKSLHDFTLKWKFEDLVLTGYQVDKNKDDELTGF
notes: His-tagged
B5: Clone 153 (designed binder)
chain: MIPGGLSEAKPATPEIQEIVDKVKPQLEEKTGETYGKLEAVQYKTQVVYPWSWNGHYGTNYYIKVRAGDNKYMHLKVFKSLIKYPFARAEEDLVLTGYQVDKNKDDELTGF
notes: His-tagged
B6: Clone 223 (designed binder)
chain: MIPGGLSEAKPATPEIQEIVDKVKPQLEEKTGETYGKLEAVQYKTQVVFPWDQENYYGTNYYIKVRAGDNKYMHLKVFKSLIKEPFIKNVEDLVLTGYQVDKNKDDELTGF
notes: His-tagged
B7: Clone 18 (designed binder)
chain: MIPGGLSEAKPATPEIQEIVDKVKPQLEEKTGETYGKLEAVQYKTQVVEAHQDLHFWGTNYYIKVRAGDNKYMHLKVFKSLLTEHNKKHQERHLDHEDLVLTGYQVDKNKDDELTGF
notes: His-tagged
B8: Clone 146 (designed binder)
chain: MIPGGLSEAKPATPEIQEIVDKVKPQLEEKTGETYGKLEAVQYKTQVVSKRSAWHWTGTNYYIKVRAGDNKYMHLKVFKSLFWNAPDDRQEDLVLTGYQVDKNKDDELTGF
notes: His-tagged
B9: Clone 17 (designed binder)
chain: MIPGGLSEAKPATPEIQEIVDKVKPQLEEKTGETYGKLEAVQYKTQVVIVYTIWNYVGTNYYIKVRAGDNKYMHLKVFKSLTPQTETEHEEDLVLTGYQVDKNKDDELTGF
notes: His-tagged
B10: Clone 152 (designed binder)
chain: MIPGGLSEAKPATPEIQEIVDKVKPQLEEKTGETYGKLEAVQYKTQVVRAQLRPWVAGTNYYIKVRAGDNKYMHLKVFKSLGWNEEARPPEDLVLTGYQVDKNKDDELTGF
notes: His-tagged
B11: Clone 163 (designed binder)
chain: MIPGGLSEAKPATPEIQEIVDKVKPQLEEKTGETYGKLEAVQYKTQVVISASEIRWYGTNYYIKVRAGDNKYMHLKVFKSLKAFANDYYKEDLVLTGYQVDKNKDDELTGF
notes: His-tagged
B12: Clone 170 (designed binder)
chain: MIPGGLSEAKPATPEIQEIVDKVKPQLEEKTGETYGKLEAVQYKTQVVHQFQEIKWFGTNYYIKVRAGDNKYMHLKVFKSLFHRTPGSTTEDLVLTGYQVDKNKDDELTGF
notes: His-tagged
B13: Clone 150 (designed binder)
chain: MIPGGLSEAKPATPEIQEIVDKVKPQLEEKTGETYGKLEAVQYKTQVVREVGLWRFQGTNYYIKVRAGDNKYMHLKVFKSLYIGYAGDAQEDLVLTGYQVDKNKDDELTGF
notes: His-tagged
B14: Clone 171 (designed binder)
chain: MIPGGLSEAKPATPEIQEIVDKVKPQLEEKTGETYGKLEAVQYKTQVVIDHQNHPTEGTNYYIKVRAGDNKYMHLKVFKSLWPWLHSTEQEDLVLTGYQVDKNKDDELTGF
notes: His-tagged
B15: Clone 151 (designed binder)
chain: MIPGGLSEAKPATPEIQEIVDKVKPQLEEKTGETYGKLEAVQYKTQVVWEEVNWRNWGTNYYIKVRAGDNKYMHLKVFKSLVPIHDHLRNEDLVLTGYQVDKNKDDELTGF
notes: His-tagged
B16: Clone 180 (designed binder)
chain: MIPGGLSEAKPATPEIQEIVDKVKPQLEEKTGETYGKLEAVQYKTQVVLQGSRLPIEGTNYYIKVRAGDNKYMHLKVFKSLGWHNVTLPPEDLVLTGYQVDKNKDDELTGF
notes: His-tagged
B17: Clone 68 (designed binder)
chain: MIPGGLSEAKPATPEIQEIVDKVKPQLEEKTGETYGKLEAVQYKTQVVRVQGLWNFQGTNYYIKVRAGDNKYMHLKVFKSLGHHGDHEKWEDLVLTGYQVDKNKDDELTGF
notes: His-tagged
B18: Clone 164 (designed binder)
chain: MIPGGLSEAKPATPEIQEIVDKVKPQLEEKTGETYGKLEAVQYKTQVVRIWGFWAFQGTNYYIKVRAGDNKYMHLKVFKSLGHESGQNLWEDLVLTGYQVDKNKDDELTGF
notes: His-tagged
B19: Clone 158 (designed binder)
chain: MIPGGLSEAKPATPEIQEIVDKVKPQLEEKTGETYGKLEAVQYKTQVVDNVANIVPHGTNYYIKVRAGDNKYMHLKVFKSLGWNYEHKWPEDLVLTGYQVDKNKDDELTGF
notes: His-tagged
B20: Clone 166 (designed binder)
chain: MIPGGLSEAKPATPEIQEIVDKVKPQLEEKTGETYGKLEAVQYKTQVVVAGLKWHWEGTNYYIKVRAGDNKYMHLKVFKSLIYASQYDYREDLVLTGYQVDKNKDDELTGF
notes: His-tagged
B21: Clone 49 (designed binder)
chain: MIPGGLSEAKPATPEIQEIVDKVKPQLEEKTGETYGKLEAVQYKTQVVKYYAIFDYKGTNYYIKVRAGDNKYMHLKVFKSLFKEKVRNSIEDLVLTGYQVDKNKDDELTGF
notes: His-tagged
B22: Clone 173 (designed binder)
chain: MIPGGLSEAKPATPEIQEIVDKVKPQLEEKTGETYGKLEAVQYKTQVVDWPSHAKFWGTNYYIKVRAGDNKYMHLKVFKSLFLPDKDDPFEDLVLTGYQVDKNKDDELTGF
notes: His-tagged
B23: Clone 160 (designed binder)
chain: MIPGGLSEAKPATPEIQEIVDKVKPQLEEKTGETYGKLEAVQYKTQVVGPWYFGSAWGTNYYIKVRAGDNKYMHLKVFKSLWENFHKLEKEDLVLTGYQVDKNKDDELTGF
notes: His-tagged
B24: Clone 157 (designed binder)
chain: MIPGGLSEAKPATPEIQEIVDKVKPQLEEKTGETYGKLEAVQYKTQVVIYYPIWDFHGTNYYIKVRAGDNKYMHLKVFKSLFWGDLKTEDLVLTGYQVDKNKDDELTGF
notes: His-tagged
B25: Clone 155 (designed binder)
chain: MIPGGLSEAKPATPEIQEIVDKVKPQLEEKTGETYGKLEAVQYKTQVVWRTGQKWQVGTNYYIKVRAGDNKYMHLKVFKSLAGHYEVHIGEDLVLTGYQVDKNKDDELTGF
notes: His-tagged
B26: Clone 172 (designed binder)
chain: MIPGGLSEAKPATPEIQEIVDKVKPQLEEKTGETYGKLEAVQYKTQVVSVFQYTYKFGTNYYIKVRAGDNKYMHLKVFKSLNNKPPHNDLEDLVLTGYQVDKNKDDELTGF
notes: His-tagged
B27: Clone 167 (designed binder)
chain: MIPGGLSEAKPATPEIQEIVDKVKPQLEEKTGETYGKLEAVQYKTQVVYRNKQWYNEGTNYYIKVRAGDNKYMHLKVFKSLKIGYLEFVLEDLVLTGYQVDKNKDDELTGF
notes: His-tagged
B28: Clone 208 (designed binder)
chain: MIPGGLSEAKPATPEIQEIVDKVKPQLEEKTGETYGKLEAVQYKTQVVQWKKTQYFFGTNYYIKVRAGDNKYMHLKVFKSLRIGYLEFEIEDLVLTGYQVDKNKDDELTGF
notes: His-tagged
B29: Clone 169 (designed binder)
chain: MIPGGLSEAKPATPEIQEIVDKVKPQLEEKTGETYGKLEAVQYKTQVVYANIGPWLYGTNYYIKVRAGDNKYMHLKVFKSLFKHRQQLHYTEDLVLTGYQVDKNKDDELTGF
notes: His-tagged
B30: Clone 159 (designed binder)
chain: MIPGGLSEAKPATPEIQEIVDKVKPQLEEKTGETYGKLEAVQYKTQVVHVHWAWNYLGTNYYIKVRAGDNKYMHLKVFKSLRNFYTFPHEEDLVLTGYQVDKNKDDELTGF
notes: His-tagged
B31: Clone 148 (designed binder)
chain: MIPGGLSEAKPATPEIQEIVDKVKPQLEEKTGETYGKLEAVQYKTQVVRDYDPFPYTGTNYYIKVRAGDNKYMHLKVFKSLWRGPGPYAIEDLVLTGYQVDKNKDDELTGF
notes: His-tagged
B32: Clone 177 (designed binder)
chain: MIPGGLSEAKPATPEIQEIVDKVKPQLEEKTGETYGKLEAVQYKTQVVISEDSWWPHGTNYYIKVRAGDNKYMHLKVFKSLNWFHQPWQREDLVLTGYQVDKNKDDELTGF
notes: His-tagged
B33: Clone 192 (designed binder)
chain: MIPGGLSEAKPATPEIQEIVDKVKPQLEEKTGETYGKLEAVQYKTQVVTENNSWWPIGTNYYIKVRAGDNKYMHLKVFKSLNWFSDEAPYEDLVLTGYQVDKNKDDELTGF
notes: His-tagged

molecular target: T1, human PD-L1-Fc (R&D Systems) (human, UniProt Q9NZQ7 19-239); assay: soluble Affimer ELISA
T1 construct: Bought from R&D Systems; Biotinylated in-house for the phage selection; also called huPD-L1-Fc; human PD-L1-Fc antigen; not shown: Fc part of the bought fusion
T1 sequence (Q9NZQ7 19-239 limits assumed): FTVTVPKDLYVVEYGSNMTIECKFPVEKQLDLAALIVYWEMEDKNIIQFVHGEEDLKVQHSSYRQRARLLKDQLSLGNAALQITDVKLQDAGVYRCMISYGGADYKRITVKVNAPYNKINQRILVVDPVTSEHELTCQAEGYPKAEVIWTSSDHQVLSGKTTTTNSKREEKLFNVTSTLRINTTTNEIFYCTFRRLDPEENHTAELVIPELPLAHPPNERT

Binding result, binds:
B1
B2
B3
B4
B5
B6
B7
B8
B9
B10
B11
B12
B13
B14
B15
B16
B17
B18
B19
B20
B21
B22
B23
B24
B25
B26
B27
B28
B29
B30
B31
B32
B33

Reference: patent publication US20250243277A1 (AVACTA LIFE SCIENCES, published 2025)
